Reference: patent US20240158448A1 (University of Pennsylvania, published 2024)
Positions of bridges follow the written chain, without caps; N, C: chain ends. No end group written: not given here.

T1: mouse SIRPα expressed on J774A.1 macrophages (mouse, UniProt P97797 32-513)
T1 sequence (looked up): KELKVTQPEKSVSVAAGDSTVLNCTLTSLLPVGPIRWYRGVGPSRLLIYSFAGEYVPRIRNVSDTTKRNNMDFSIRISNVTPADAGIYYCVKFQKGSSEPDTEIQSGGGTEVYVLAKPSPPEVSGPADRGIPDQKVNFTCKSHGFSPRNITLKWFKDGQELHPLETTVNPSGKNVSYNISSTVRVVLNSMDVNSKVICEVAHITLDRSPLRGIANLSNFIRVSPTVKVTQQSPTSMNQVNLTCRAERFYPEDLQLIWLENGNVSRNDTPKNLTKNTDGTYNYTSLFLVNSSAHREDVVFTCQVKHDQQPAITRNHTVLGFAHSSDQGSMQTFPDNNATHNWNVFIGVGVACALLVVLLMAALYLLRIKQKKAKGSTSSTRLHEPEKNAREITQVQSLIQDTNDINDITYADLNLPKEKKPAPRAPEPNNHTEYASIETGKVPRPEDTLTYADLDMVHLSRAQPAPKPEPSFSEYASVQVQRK

T2: mouse SIRPα expressed on primary bone marrow derived macrophages (C57BL6/J) (mouse, UniProt P97797 32-513)
T2 sequence (looked up): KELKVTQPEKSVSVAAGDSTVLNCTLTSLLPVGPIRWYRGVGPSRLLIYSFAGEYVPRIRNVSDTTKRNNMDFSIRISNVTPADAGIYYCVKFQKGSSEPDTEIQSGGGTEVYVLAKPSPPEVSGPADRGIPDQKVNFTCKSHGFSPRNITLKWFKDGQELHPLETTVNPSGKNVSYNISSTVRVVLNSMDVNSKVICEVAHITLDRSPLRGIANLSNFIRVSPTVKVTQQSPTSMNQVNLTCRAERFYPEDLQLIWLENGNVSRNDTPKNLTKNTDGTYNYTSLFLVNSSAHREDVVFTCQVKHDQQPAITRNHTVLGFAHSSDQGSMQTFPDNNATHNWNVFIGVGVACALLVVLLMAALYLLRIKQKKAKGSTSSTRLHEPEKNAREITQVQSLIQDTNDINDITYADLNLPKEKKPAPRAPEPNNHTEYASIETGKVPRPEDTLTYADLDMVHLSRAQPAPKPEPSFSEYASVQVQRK


Key:
Test in all cases: cell-based or functional assay
[1] = biological target: human SIRPα expressed on cells (PMA-differentiated THP-1 macrophages; A549 cells) (human, UniProt P78324 31-504)
[2] = biological target: T1, mouse SIRPα expressed on J774A.1 …
[3] = biological target: T2, mouse SIRPα expressed on primary bone …

| Binder | increase in THP-1 macrophage phagocytosis of opsonized RBCs relative to nS-wt [1] | maximum phagocytosis of opsonized RBCs by THP-1 macrophages [1] | maximum phagocytosis of opsonized B16 cells by mouse BMDMs [3] | other results |
| --- | --- | --- | --- | --- |
| VTELFREG-NH2 [nS-F] | ~25% | ~25% | ~25% | phagocytosis of opsonized RBCs by J774A.1 macrophages, relative to nS-X [2]: 3 fold |
| CVELTREGC-NH2 (disulfide 1-9; not fully specified) [nS-Cyc (cyclic nano-Self peptide)] |  | ~25% | ~25% |  |
| VTELTREG-NH2 [nS-wt (nano-Self wild-type peptide)] |  |  |  | fold decrease in effective activity in the mouse macrophage phagocytosis assay relative to the human assay [2]: ~100 fold |
| nS-FF, (VTELFREG-PEG5)2-K (not fully specified; core Lys carrying one PEG5-peptide arm on each of its two amines; C-terminal amide; C-terminus joined through a PEG5 linker to one of the two amines of the core Lys) peptide: VTELFREG K |  |  |  | activity relative to nS-wt in phagocytosis of opsonized RBCs [1]: > 100 fold; increase in phagocytic macrophages relative to anti-CD47 on opRBC [1]: ~10% |
| CVTELFREGC (HELM PEPTIDE1{C.V.T.E.L.F.R.E.G.C.[am]}$PEPTIDE1,PEPTIDE1,1:R3-10:R3$$$V2.0; N-terminus assumed; SMILES CC(C)C[C@@H]1NC(=O)[C@H](CCC(=O)O)NC(=O)[C@H]([C@@H](C)O)NC(=O)[C@H](C(C)C)NC(=O)[C@@H](N)CSSC[C@@H](C(N)=O)NC(=O)CNC(=O)[C@H](CCC(=O)O)NC(=O)[C@H](CCCNC(=N)N)NC(=O)[C@H](Cc2ccccc2)NC1=O) [nS-F-Cyc] | ~25% | ~25% | ~25% |  |
